Test results as given in the supplement of paper PMC6755084.

B1: F1*; the commonest letter at each place (parent)
chain: GAGACCGCAACTGAAAAGTTGTTATCACTTGTCGTAAGACACTTTGGATGGGTTGAAGTTCTGCACGTAGAAGCAAAAGGC

Variants of: B1
Assay: fraction ligated after 30 min (ligated reads / total reads); higher = more ligase activity
Details: with F1*sub RNA substrate (template-directed ligation), 42 °C
Description: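 Chip-synthesised pool of F1* ligase ribozyme variants (all single and double substitutions, single, double and triple deletions in the catalytic core and GAA bulge, plus designed variants) was transcribed with T7 and reacted as a pool with excess substrate F1*sub for 30 min at 42 C in 50 mM EPPS pH 8.5, 25 mM MgCl2. Ligated and unligated bands were separated by PAGE, barcoded by RT and deep sequenced; fraction ligated = ligated reads / total reads per variant, relative activity = FL / FL of wild type (0.826). Sequences are the DNA template of the ribozyme.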

| Variant | fraction ligated |
| --- | --- |
| T25C C33T | 0.786 |
| C26A T43C | 0.755 |
| C26A T43A | 0.809 |
| C26A T43G | 0.547 |
| C26G T49A | 0.188 |
| C26G T49C | 0.0764 |
| C26G T49G | 0.371 |
| T25C T35C | 0.771 |
| T25C T35A | 0.781 |
| T25C T35G | 0.801 |
| T25C T30C | 0.751 |
| T25C T30G | 0.162 |
| T25C T30A | 0.75 |
| C26G G47T | 0.159 |
| C26G G47A | 0.8 |
| C26G G47C | 0.404 |
| T25G C33T | 0.704 |
| T25G C33G | 0.535 |
| T25G C33A | 0.526 |
| T25G T32A | 0.324 |
| T25G T32C | 0.364 |
| T25G T32G | 0.293 |
| C26A A48G | 0.123 |
| C26A A48T | 0.00798 |

| Variant | fraction ligated |
| --- | --- |
| C26A A48C | 0.366 |
| T25C T43C | 0.731 |
| T25C T43G | 0.8 |
| T25C T43A | 0.655 |
| C26G A57G | 0.576 |
| C26G A57C | 0.33 |
| C26G A57T | 0.312 |
| C26G A48G | 0.058 |
| C26G A48T | 0.00571 |
| C26G A48C | 0.104 |
| T25G A36T | 0.795 |
| T25G A36G | 0.795 |
| T25G A36C | 0.77 |
| T25C A56C | 0.0931 |
| T25C A56G | 0.0517 |
| T25C A56T | 0.107 |
| T25G T29A | 0.773 |
| T25G T29C | 0.385 |
| T25G T29G | 0.714 |
| T25C G55C | 0.424 |
| T25C G55T | 0.174 |
| T25C G55A | 0.784 |
| C26A G46C | 0.744 |
| C26A G46A | 0.73 |

| Variant | fraction ligated |
| --- | --- |
| C26A G46T | 0.449 |
| T25C A48T | 0.815 |
| T25C A48G | 0.794 |
| T25C A48C | 0.686 |
| T25G A48G | 0.291 |
| T25G A48C | 0.819 |
| T25G A48T | 0.818 |
| T25C C26G | 0.0807 |
| T25C C26T | 0.813 |
| T25C C26A | 0.0548 |
| C26T A27T | 0.808 |
| C26T A27G | 0.771 |
| C26T A27C | 0.811 |
| C26G A37T | 0.707 |
| C26G A37G | 0.762 |
| C26G A37C | 0.674 |
| C26A A27G | 0.747 |
| C26A A27T | 0.747 |
| C26A A27C | 0.842 |
| C26G C40T | 0.678 |
| C26G C40G | 0.793 |
| C26G C40A | 0.248 |
| T25G A56C | 0.0423 |
| T25G A56T | 0.0925 |

| Variant | fraction ligated |
| --- | --- |
| T25G A56G | 0.0638 |
| T25G C28G | 0.541 |
| T25G C28A | 0.348 |
| T25G C28T | 0.675 |
| T25G G46A | 0.266 |
| T25G G46C | 0.135 |
| T25G G46T | 0.134 |
| T25G A37G | 0.806 |
| T25G A37T | 0.808 |
| T25G A37C | 0.757 |
| C26A T29G | 0.784 |
| C26A T29A | 0.786 |
| C26A T29C | 0.804 |
| T25G C42G | 0.737 |
| T25G C42A | 0.737 |
| T25G C42T | 0.797 |
| C26A G55A | 0.618 |
| C26A G55T | 0.249 |
| C26A G55C | 0.0379 |
| T25C G31T | 0.546 |
| T25C G31A | 0.742 |
| T25C G31C | 0.53 |
| T25G | 0.784 |
| T25G G47C | 0.242 |

| Variant | fraction ligated |
| --- | --- |
| T25G G47T | 0.102 |
| T25G G47A | 0.363 |
| C26G C28T | 0.558 |
| C26G C28A | 0.688 |
| C26G C28G | 0.611 |
| T25G G38C | 0.165 |
| T25G G38A | 0.676 |
| T25G G38T | 0.659 |
| C26A A39G | 0.75 |
| C26A A39T | 0.721 |
| C26A A39C | 0.627 |
| C26G A36T | 0.773 |
| C26G A36C | 0.0567 |
| C26G A36G | 0.767 |
| C26A G50T | 0.0739 |
| C26A G50C | 0.0201 |
| C26A G50A | 0.0155 |
| C26A A41C | 0.21 |
| C26A A41T | 0.768 |
| C26A A41G | 0.761 |
| C26T A36C | 0.788 |
| C26T A36T | 0.827 |
| C26T A36G | 0.828 |
| T25G G55T | 0.132 |

| Variant | fraction ligated |
| --- | --- |
| T25G G55C | 0.0471 |
| T25G G55A | 0.442 |
| C26G G38A | 0.446 |
| C26G G38T | 0.0811 |
| C26G G38C | 0.00552 |
| T25C G50A | 0.326 |
| T25C G50C | 0.379 |
| T25C G50T | 0.639 |
| C26A A37T | 0.797 |
| C26A A37C | 0.781 |
| C26A A37G | 0.785 |
| C26T A39C | 0.789 |
| C26T A39G | 0.819 |
| C26T A39T | 0.823 |
| C26G A39G | 0.755 |
| C26G A39T | 0.493 |
| C26G A39C | 0.123 |
| C26A T49G | 0.502 |
| C26A T49C | 0.0891 |
| C26A T49A | 0.216 |
| C26A T45G | 0.0382 |
| C26A T45C | 0.0795 |
| C26A T45A | 0.366 |
| C26A T44C | 0.782 |

| Variant | fraction ligated |
| --- | --- |
| C26A T44A | 0.792 |
| C26A T44G | 0.78 |
| T25G A57C | 0.556 |
| T25G A57G | 0.703 |
| T25G A57T | 0.563 |
| C26A G31A | 0.261 |
| C26A G31C | 0.226 |
| C26A G31T | 0.0438 |
| T25C C40A | 0.524 |
| T25C C40T | 0.819 |
| T25C C40G | 0.378 |
| T25C C42A | 0.776 |
| T25C C42T | 0.804 |
| T25C C42G | 0.769 |
| C26A C40G | 0.793 |
| C26A C40T | 0.814 |
| C26A C40A | 0.755 |
| C26A T35G | 0.794 |
| C26A T35A | 0.803 |
| C26A T35C | 0.807 |
| T25C T45C | 0.0655 |
| T25C T45G | 0.0359 |
| T25C T45A | 0.295 |
